Sequences and labels used below:
B2: FtsZ (Filamenting temperature sensitive Z), Escherichia coli (natural protein, E. coli, UniProt P0A9A6 1-383, looked up)
chain: MFEPMELTNDAVIKVIGVGGGGGNAVEHMVRERIEGVEFFAVNTDAQALRKTAVGQTIQIGSGITKGLGAGANPEVGRNAADEDRDALRAALEGADMVFIAAGMGGGTGTGAAPVVAEVAKDLGILTVAVVTKPFNFEGKKRMAFAEQGITELSKHVDSLITIPNDKLLKVLGRGISLLDAFGAANDVLKGAVQGIAELITRPGLMNVDFADVRTVMSEMGYAMMGSGVASGEDRAEEAAEMAISSPLLEDIDLSGARGVLVNITAGFDLRLDEFETVGNTIRAFASDNATVVIGTSLDPDMNDELRVTVVATGIGMDKRPEITLVTNKQVQQPVMDRYQQHGMAPLTQEQKPVAKVVNDNAPQTAKEPDYLDIPAFLRKQAD
notes: FtsZ, Escherichia coli; tryptic peptides up to the C-terminal KQAD (residues 380-383) were identified; In the cross-linking experiments a 1:1 mixture of 14N- and 15N-labelled FtsZ was used (about 95% 15N); Polymerised with GTP into protofilaments; also called ^14N-FtsZ; ^15N-FtsZ; source: E. coli BL21(DE3) pRRE6, isolated as described [52]

Data set [1] concerns the molecule itself. Briefly: cross-linking; BAMG (100-150 uM) added 30-60 s after GTP, 30 min at 30 °C; trypsin digest, enrichment on ARCO resin, SCX, LC-MS/MS; 3.4 uM FtsZ (14N:15N 1:1), 6.8 uM ZapA, 50 mM HEPES pH 7.5, 50 mM KCl, 5 mM MgCl2, 60 uM GTP; no Ca2+.
In data set [2] the target is B2. Described as above. The note with it: both partners purified.
Data set [3] deals with the molecule itself. In words: cross-linking; BAMG, LC-MS/MS; bundling conditions: FtsZ (14N:15N 1:1) without ZapA, 10 mM CaCl2, 30 uM GTP, polymerization buffer pH 7.5, 30 °C.

The text below walks through data of article PMC6213154, “Mapping the Contact Sites of the Escherichia coli Division-Initiating Proteins FtsZ and ZapA by BAMG Cross-Linking and Site-Directed Mutagenesis” (International Journal of Molecular Sciences, 2018).

What is called stoichiometry N is the number of molecules, sites or subunits per partner or assembly.

B1: ZapA (Z associated protein A), Escherichia coli (natural protein, E. coli)
chain: MSAQPVDIQIFGRSLRVNCPPDQRDALNQAADDLNQRLQDLKERTRVTNTEQLVFIAALNISYELAQEKAKTRDYAASMEQRIRMLQQTIEQALLEQGRITEKTNQNFE
notes: ZapA, Escherichia coli; source: isolated using a His-tagged version, His-tag removed by proteolysis, as described [8]
Take B1: the “stoichiometry N” value in data set [1] is 4. For the same molecule, the binding result in data set [2] is given as “binds”. Turning to B2, the binding result in data set [3] is listed as “binds”.
